The target in assay [1] is 犬细小病毒 (canine parvovirus, whole virus) (犬细小病毒 (canine parvovirus)). Description: cell-based or functional assay.
For assay [2], the target named is 犬细小病毒VLPs (canine parvovirus virus-like particles) (犬细小病毒 (canine parvovirus)). Description: indirect ELISA, VLPs coated at 1μg/ml, hybridoma supernatant.
The target is the same in assay [3]. The assay is described as follows: non-competitive indirect ELISA, CPV-VLPs coated at 1, 0.5, 0.25, 0.125 μg/ml; mean of 6 Ka values. A general note: In an ELISA, binding on a coated surface is turned into a signal by an enzyme label.

Where “and” joins values, the source holds several entries; their conditions need not be identical. Identical values can stand only once.

B1: 鼠源CPV基因工程抗体 (recombinant mouse anti-canine parvovirus antibody expressed in HEK-293 cells) (antibody, V domains shown)
VH: QVQLKQSGPGLVQPSQSLSITCTVSGFSLTSYGVHWVRHSPGKGLEWLGVIWSGGSTDYNAAFISRLSITKDNSKTQVFFKMNSLQANDTAIYYCARNSFYGSTPGSYAMDYWGQGTSVTVSS
VL: QIVLTQSPASLSMAIGEKVTIRCIASTDIDDDMNWYQQKPGKPPNLLISEGNTLRPGVPSRFSSSGYGTDFVFTIQNMLSEDVADYYCLQSDNLPLTFGAGTKLELK
In the case of B1, in assay [1], the 中和效价 was 4 titre (1:x) and 8 titre (1:x); the 血凝抑制效价 is 8 titre (1:x).

B2: CPV单克隆抗体 (mouse anti-canine parvovirus monoclonal antibody from hybridoma supernatant) (antibody, V domains shown)
VH: B1 VH
VL: B1 VL
In the case of B2, the OD450 in assay [2] is 1.07 OD450. Further, in assay [3], the Ka was found to be 1.02e+11 M⁻¹.

These data come from patent publication CN109627331A.
